Where “and” joins values, the source holds several entries; their conditions need not be identical. Equal entries are not always repeated.
Target: the molecule itself
Assay: SEC

B1: Chlamydomonas reinhardtii alpha-amylase 2 (AMA2), recombinant full-length enzyme (enzyme, UniProt A0A2K3DGK5 1-706, looked up)
chain: MDRSLLSRTSPRMQLGRPQQLPPPTVPLAQVPRLQRRCVVGSRVCQPVVAVRPGRASAGRGGRLVVSSVDMSNSPLSSMDAGEGLDIMFDNNSDAECTVVTVEGKDKAHLLMSLTGGFSSAGLTVISASITSDDGRVLDVFRVQTADGKKVPEEQFPSVREHILSVTATSSRSSMPAIYGIVAAAEVERLKPLRSQSTQNDVDALELAAAEMTQAVAELVATERDIIRMRASNADARTLQTKEANRTEAAAGLERKMAAMQAVLAARRNLATEPEKPKSPTEKLLETLKPPTPMRAAAGAGSGSGSEILLQAFNWESHRQKLYKQLMGRVKDISDAGFTGVWMPPPSDSVSPQGYLPRDLYSLDSAYGSEAELRELIAAFHQNNIKVIADIVVNHRCANSQGSDGKWNKFGGRLAWDASAICSNNPSFGGRGNPKQGDDYAAAPNIDHSQERIRNDIVQWMKYLRNSIGFDGWRFDFVRGYLGSYCKQYIDETVPAMAFGEYWDSCEYTDGVLNYNQDAHRQRTVNWCDSTGGTSAAFDFTTKGILQEAVGRREYWRLVDSQGRPPGVMGMWPSRAITFIDNHDTGSTLNHWPFPSRNLPEGYAYILTHPGTPCVFYDHFYQEENNLRKIILDLLKVRRRNGLNARSKVVMKKSAADVYAAMIDDKVAVKLGPGDWSPNQSGIKVNGKELKVAASGFQFAVWEGQH
stoichiometry N: 2 and 4
